According to article PMC2686265, “ATP and MO25α Regulate the Conformational State of the STRADα Pseudokinase and Activation of the LKB1 Tumour Suppressor” (PLoS Biology, 2009):
One block for each molecule: values may come before it.

Key:
MO25α (R227A) = biological target: T1, MO25α (R227A) (Homo sapiens, UniProt Q7RTN6+Q9Y376, R227A); test: SPR BIAcore binding of STRADα to immobilised MO25α; details: + ATP + Mg2+
T1 construct: wild-type and mutant forms of STRADα (residues 54–431) and MO25α (residues 1–341) were expressed individually as GST fusion proteins in E. coli; GST (cleaved yes); made in house; host or cells: E. coli
T1 sequence (Q9Y376 1-341 R227A): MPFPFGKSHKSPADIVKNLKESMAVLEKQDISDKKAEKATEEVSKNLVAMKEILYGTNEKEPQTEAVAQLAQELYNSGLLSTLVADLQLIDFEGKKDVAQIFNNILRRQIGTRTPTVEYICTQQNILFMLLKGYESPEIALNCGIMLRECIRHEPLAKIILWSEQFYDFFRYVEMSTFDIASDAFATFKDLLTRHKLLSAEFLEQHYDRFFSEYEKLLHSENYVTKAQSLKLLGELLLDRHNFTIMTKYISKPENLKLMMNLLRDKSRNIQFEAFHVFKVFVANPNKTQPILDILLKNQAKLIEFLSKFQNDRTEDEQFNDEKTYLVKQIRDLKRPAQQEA
T1 sequence (Q7RTN6 59-431): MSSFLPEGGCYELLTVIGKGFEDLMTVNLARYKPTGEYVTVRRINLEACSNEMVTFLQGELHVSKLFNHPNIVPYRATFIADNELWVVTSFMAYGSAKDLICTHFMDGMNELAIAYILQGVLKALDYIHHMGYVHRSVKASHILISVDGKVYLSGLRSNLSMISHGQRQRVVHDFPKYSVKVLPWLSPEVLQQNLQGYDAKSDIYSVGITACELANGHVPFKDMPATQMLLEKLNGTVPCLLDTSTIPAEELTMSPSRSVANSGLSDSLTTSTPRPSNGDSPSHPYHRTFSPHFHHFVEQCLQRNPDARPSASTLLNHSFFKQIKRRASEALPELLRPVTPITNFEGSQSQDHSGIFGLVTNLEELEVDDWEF
Procedure: (§1) SPR measurements were performed using a BIAcore T100 instrument. Wild-type and mutant forms of MO25α were immobilized on a CM5 sensor chip using standard amine-coupling chemistry, and 10 mM HBS (pH 7.4) was used as the running buffer. The carboxymethyl dextran surface was activated with a 7-min injection of a 1∶1 ratio of 0.4 M 1-ethyl-3-(3-dimethylaminopropyl) carbodiimide hydrochloride (EDC)/0.1 M N-hydroxy succinimide (NHS). MO25α (5–7 µM) was coupled to the surface with a 1-min injection of protein diluted in 10 mM sodium acetate (pH 5.5). Remaining activated groups were blocked with a 7-min injection of 1 M ethanolamine (pH 8.5). MO25α was immobilised on three flow cells of a CM5 chip at densities 1,700–2,500 RU performed at 25°C, leaving one flow cell as a reference to subtract any possible nonspecific binding.
(§2) STRADα was prepared in running buffer containing 50 mM Tris (pH 7.8), 50 mM NaCl, 270 mM sucrose, 1 mM DTT, 0.005% P20, and 0.1 mg/ml BSA in the presence/absence of 100 µM ATP and 1 mM MgCl2, and injected over all four surfaces at nine concentrations of a 3-fold concentration series (5 µM to […]). Each concentration was injected in duplicate over all surfaces. Association was measured for 60 s at a flow rate of 50 µl/min, and dissociation was measured for 3 min. STRADα dissociated completely from the MO25α surfaces, thus eliminating the need for a regeneration step.
(§3) Data were analysed using Scrubber 2 (BioLogic Software) and CLAMP software. Data were double referenced to the reference surface to subtract any possible nonspecific binding and to the blank buffer injections to subtract drift of the target from surface. Data were fitted to a 1∶1 or 2∶1 binding site model where appropriate. Kinetic association (k a) and dissociation rate (k d) constants were separately determined from the BIAcore sensorgrams, and equilibrium dissociation constants (K d) were calculated as: K d1 = k d1/k a1 and K d2 = k d2/k a2. Equilibrium constants were also independently calculated from a saturation binding curve, by fitting the measured response (R) from specific binding to the following equation: R = (R max1[STRAD]/([STRAD]+K d1))+(R max2[STRAD]/([STRAD]+K d2)), where R max1 and R max2 are the relative maximal changes in response for sites 1 and 2, respectively, and K d1 and K d2 are the equilibrium dissociation constants for sites 1 and 2, respectively. Dose-response curves for calculating the Hill slope (H) of the data were fitted with the following equation: R = minimum+(maximum−minimum)/(1+10^((logEC50−[STRAD])×H)) using GraphPad-PRISM software.

MO25α (M260A) = biological target: T2, MO25α (M260A) (Homo sapiens, UniProt Q7RTN6+Q9Y376, M260A); test: SPR BIAcore binding of STRADα to immobilised MO25α; details: + ATP + Mg2+
T2 construct: wild-type and mutant forms of STRADα (residues 54–431) and MO25α (residues 1–341) were expressed individually as GST fusion proteins in E. coli; GST (cleaved yes); made in house; host or cells: E. coli
T2 sequence (Q9Y376 1-341 M260A): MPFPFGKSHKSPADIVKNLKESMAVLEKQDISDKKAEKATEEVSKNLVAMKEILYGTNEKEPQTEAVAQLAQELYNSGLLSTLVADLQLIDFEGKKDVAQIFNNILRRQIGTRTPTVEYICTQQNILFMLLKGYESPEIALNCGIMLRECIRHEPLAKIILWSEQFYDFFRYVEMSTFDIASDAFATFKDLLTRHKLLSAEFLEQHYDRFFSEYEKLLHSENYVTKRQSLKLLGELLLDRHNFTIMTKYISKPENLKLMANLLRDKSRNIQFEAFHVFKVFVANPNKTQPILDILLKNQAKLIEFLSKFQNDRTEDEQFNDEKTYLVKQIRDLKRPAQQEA
T2 sequence (Q7RTN6 59-431): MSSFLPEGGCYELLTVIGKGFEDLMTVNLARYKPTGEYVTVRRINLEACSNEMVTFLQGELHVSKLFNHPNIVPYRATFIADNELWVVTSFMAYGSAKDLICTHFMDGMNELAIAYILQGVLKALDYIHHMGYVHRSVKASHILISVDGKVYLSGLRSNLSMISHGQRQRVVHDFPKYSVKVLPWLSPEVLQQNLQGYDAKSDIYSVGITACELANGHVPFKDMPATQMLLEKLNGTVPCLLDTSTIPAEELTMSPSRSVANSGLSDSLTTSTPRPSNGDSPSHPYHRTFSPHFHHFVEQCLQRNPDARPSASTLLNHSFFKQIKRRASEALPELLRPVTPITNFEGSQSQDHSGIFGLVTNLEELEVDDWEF
Procedure: as §1, §2, §3

MO25α (WT) = biological target: T3, MO25α (WT) (Homo sapiens, UniProt Q7RTN6+Q9Y376); test: SPR BIAcore binding of STRADα to immobilised MO25α; details: + ATP + Mg2+
T3 construct: wild-type and mutant forms of STRADα (residues 54–431) and MO25α (residues 1–341) were expressed individually as GST fusion proteins in E. coli; GST (cleaved yes); made in house; host or cells: E. coli (STRADα: BL21(DE3)pLysS, co-expressed with MO25α and then separated from it)
T3 sequence (Q9Y376 1-341): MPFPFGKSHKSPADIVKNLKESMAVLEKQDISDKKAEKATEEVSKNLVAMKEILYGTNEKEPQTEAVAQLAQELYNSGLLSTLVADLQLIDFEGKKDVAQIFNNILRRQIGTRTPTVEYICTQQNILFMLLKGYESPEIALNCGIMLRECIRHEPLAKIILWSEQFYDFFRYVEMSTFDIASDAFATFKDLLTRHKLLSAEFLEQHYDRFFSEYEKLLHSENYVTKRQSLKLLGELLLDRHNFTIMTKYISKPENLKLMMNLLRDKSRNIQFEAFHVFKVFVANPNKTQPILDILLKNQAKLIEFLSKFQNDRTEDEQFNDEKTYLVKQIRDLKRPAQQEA
T3 sequence (Q7RTN6 59-431): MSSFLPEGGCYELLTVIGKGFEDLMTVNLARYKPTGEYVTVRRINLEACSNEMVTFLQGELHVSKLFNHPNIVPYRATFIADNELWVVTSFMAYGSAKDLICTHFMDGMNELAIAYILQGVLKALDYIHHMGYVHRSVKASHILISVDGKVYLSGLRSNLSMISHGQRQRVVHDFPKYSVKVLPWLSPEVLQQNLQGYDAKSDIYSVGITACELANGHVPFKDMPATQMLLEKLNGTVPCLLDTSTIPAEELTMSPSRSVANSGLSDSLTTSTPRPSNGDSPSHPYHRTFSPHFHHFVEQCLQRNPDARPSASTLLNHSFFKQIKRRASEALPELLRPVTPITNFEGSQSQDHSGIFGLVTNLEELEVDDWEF
Procedure: as §1, §2, §3

[1] = biological target: T4, untagged STRADα (residues 59–431) (human, UniProt Q7RTN6 59-431); test: SPR; BIAcore T100, MO25α amine-coupled to CM5 chip, STRADα injected (5 µM to 0.3 nM), 25°C, 50 mM Tris pH 7.8, 50 mM NaCl, 270 mM sucrose, 1 mM DTT, 0.005% P20, 0.1 mg/ml BSA; without ATP; Kd = kd/ka; details: both partners purified
T4 construct: STRADα, human, residues 59–431; also called STRADα lacking the His tag
T4 sequence (looked up): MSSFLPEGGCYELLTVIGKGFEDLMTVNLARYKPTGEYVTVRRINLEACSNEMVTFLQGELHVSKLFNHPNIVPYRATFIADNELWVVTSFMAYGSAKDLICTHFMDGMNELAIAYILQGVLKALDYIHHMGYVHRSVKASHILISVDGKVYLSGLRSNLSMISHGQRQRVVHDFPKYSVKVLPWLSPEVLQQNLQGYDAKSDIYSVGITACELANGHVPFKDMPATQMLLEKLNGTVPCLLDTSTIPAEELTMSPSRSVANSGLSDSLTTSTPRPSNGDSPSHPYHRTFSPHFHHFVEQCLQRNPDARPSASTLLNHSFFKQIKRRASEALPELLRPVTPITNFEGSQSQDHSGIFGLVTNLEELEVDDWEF

kd1 (MO25α (R227A)): 1.61 (7.0 × 10−3) s−1
kd1 (MO25α (M260A)): 0.77 (4.6 × 10−3) s−1
kd2 (MO25α (M260A)): 0.11 (5.3 × 10−4) s−1
kd1 (MO25α (WT)): 0.55 (3.8 × 10−3) s−1
kd2 (MO25α (WT)): 0.08 (4.8 × 10−4) s−1
B1: His-STRADα: STRADα (residues 59–431) with N-terminal 6-His tag, SPR analyte (protein)
chain: MSSFLPEGGCYELLTVIGKGFEDLMTVNLARYKPTGEYVTVRRINLEACSNEMVTFLQGELHVSKLFNHPNIVPYRATFIADNELWVVTSFMAYGSAKDLICTHFMDGMNELAIAYILQGVLKALDYIHHMGYVHRSVKASHILISVDGKVYLSGLRSNLSMISHGQRQRVVHDFPKYSVKVLPWLSPEVLQQNLQGYDAKSDIYSVGITACELANGHVPFKDMPATQMLLEKLNGTVPCLLDTSTIPAEELTMSPSRSVANSGLSDSLTTSTPRPSNGDSPSHPYHRTFSPHFHHFVEQCLQRNPDARPSASTLLNHSFFKQIKRRASEALPELLRPVTPITNFEGSQSQDHSGIFGLVTNLEELEVDDWEF
modifications: lysines chemically methylated in the 2.35 Å crystal form only; left off: His6 with TEV site (…), N-terminal, kept
notes: STRADα (residues 59–431) with N-terminal 6-His tag, SPR analyte

Kd [1]: 3.8 µM
B2: MO25α (WT) (residues 1–341) (natural protein, human, UniProt Q9Y376 1-341, looked up)
chain: MPFPFGKSHKSPADIVKNLKESMAVLEKQDISDKKAEKATEEVSKNLVAMKEILYGTNEKEPQTEAVAQLAQELYNSGLLSTLVADLQLIDFEGKKDVAQIFNNILRRQIGTRTPTVEYICTQQNILFMLLKGYESPEIALNCGIMLRECIRHEPLAKIILWSEQFYDFFRYVEMSTFDIASDAFATFKDLLTRHKLLSAEFLEQHYDRFFSEYEKLLHSENYVTKRQSLKLLGELLLDRHNFTIMTKYISKPENLKLMMNLLRDKSRNIQFEAFHVFKVFVANPNKTQPILDILLKNQAKLIEFLSKFQNDRTEDEQFNDEKTYLVKQIRDLKRPAQQEA
notes: MO25α, human, residues 1–341 (full length); also called MO25α (WT, wild type); wild-type MO25α; source: E. coli, expressed individually as GST fusion, purified on glutathione-Sepharose, eluted with PreScission protease

binding result [1]: binds
B3: MO25α (M260A) (residues 1–341) (natural protein, human, UniProt Q9Y376 1-341, looked up)
chain: MPFPFGKSHKSPADIVKNLKESMAVLEKQDISDKKAEKATEEVSKNLVAMKEILYGTNEKEPQTEAVAQLAQELYNSGLLSTLVADLQLIDFEGKKDVAQIFNNILRRQIGTRTPTVEYICTQQNILFMLLKGYESPEIALNCGIMLRECIRHEPLAKIILWSEQFYDFFRYVEMSTFDIASDAFATFKDLLTRHKLLSAEFLEQHYDRFFSEYEKLLHSENYVTKRQSLKLLGELLLDRHNFTIMTKYISKPENLKLMANLLRDKSRNIQFEAFHVFKVFVANPNKTQPILDILLKNQAKLIEFLSKFQNDRTEDEQFNDEKTYLVKQIRDLKRPAQQEA
notes: MO25α, human, residues 1–341 (full length), M260A; source: E. coli, expressed individually as GST fusion, purified on glutathione-Sepharose, eluted with PreScission protease
